How the values were obtained:
[1] = target: isolated, soluble α3 domain of H-2K^b (recombinant) (murine) (UniProt P01901); assay: SEC
[2] = target: isolated, soluble α3 domain of H-2K^b (recombinant) (murine) (UniProt P01901); assay: native MS
[3] = target: CE3-HA-B*27:05 (HLA-B*27:05 heavy chain) (human); assay: non-reducing SDS-PAGE and Western blot of precipitated surface class I
[4] = target: HA-K^b (free heavy chain of H-2K^b with N-terminal HA tag) (murine) (UniProt P01901); assay: FRAP
[5] = target: GFP-K^b (free heavy chain of H-2K^b with N-terminal monomeric GFP) (murine) (UniProt P01901); assay: single-molecule co-tracking

isolated, soluble α3 domain of H-2K^b (recombinant) (from UniProt P01901 205-295) (domain or fragment)
Kd [1]: 10 to 20 µM
stoichiometry N [1]: 2
stoichiometry N [2]: 2

CE3-HA-B*27:05 (HLA-B*27:05 heavy chain) (natural protein)
stoichiometry N [3]: 2

K^b-GFP (free heavy chain of H-2K^b with C-terminal GFP) (from UniProt P01901 22-369) (natural protein)
half-time of dissociation [4]: 140 s

GFP-K^b (free heavy chain of H-2K^b with N-terminal monomeric GFP) (from UniProt P01901 22-369) (natural protein)
fraction of co-locomoting molecules [5]: 3%
half-life (t½) [5]: 220 ms
koff [5]: 3.1 s⁻¹
stoichiometry N [5]: 2
